In patent US20240327497A1:
“And” between values parts separate entries of the source, which are not always exact repeats. Equal values may be shown once.

B1: canine IgGB Fc (CH2-CH3) M428A with N-terminal SASA tag (Fc fusion, part only; not given: SASA tag, not shown: another chain or arm of the molecule; small tags and cut ends)
Fc: APEMLGGPSVFIFPPKPKDTLLIARTPEVTCVVVDLDPEDPEVQISWFVDGKQMQTAKTQPREEQFNGTYRVVSVLPIGHQDWLKGKQFTCKVNNKALPSPIERTISKARGQAHQPSVYVLPPSREELSKNTVSLTCLIKDFFPPDIDVEWQSNGQQEPESKYRTTPPQLDEDGSYFLYSKLSVDKSRWQRGDTFICAVAHEALHNHYTQESLSHSPGK
B2: canine IgGB Fc (CH2-CH3) G309A with N-terminal SASA tag (Fc fusion, part only; not given: SASA tag, not shown: another chain or arm of the molecule; small tags and cut ends)
Fc: APEMLGGPSVFIFPPKPKDTLLIARTPEVTCVVVDLDPEDPEVQISWFVDGKQMQTAKTQPREEQFNGTYRVVSVLPIAHQDWLKGKQFTCKVNNKALPSPIERTISKARGQAHQPSVYVLPPSREELSKNTVSLTCLIKDFFPPDIDVEWQSNGQQEPESKYRTTPPQLDEDGSYFLYSKLSVDKSRWQRGDTFICAVMHEALHNHYTQESLSHSPGK
B3: canine IgGB Fc (CH2-CH3) T286A with N-terminal SASA tag (Fc fusion, part only; not given: SASA tag, not shown: another chain or arm of the molecule; small tags and cut ends)
Fc: APEMLGGPSVFIFPPKPKDTLLIARTPEVTCVVVDLDPEDPEVQISWFVDGKQMQAAKTQPREEQFNGTYRVVSVLPIGHQDWLKGKQFTCKVNNKALPSPIERTISKARGQAHQPSVYVLPPSREELSKNTVSLTCLIKDFFPPDIDVEWQSNGQQEPESKYRTTPPQLDEDGSYFLYSKLSVDKSRWQRGDTFICAVMHEALHNHYTQESLSHSPGK
B4: canine IgGB Fc (CH2-CH3) T256A with N-terminal SASA tag (Fc fusion, part only; not given: SASA tag, not shown: another chain or arm of the molecule; small tags and cut ends)
Fc: APEMLGGPSVFIFPPKPKDTLLIARAPEVTCVVVDLDPEDPEVQISWFVDGKQMQTAKTQPREEQFNGTYRVVSVLPIGHQDWLKGKQFTCKVNNKALPSPIERTISKARGQAHQPSVYVLPPSREELSKNTVSLTCLIKDFFPPDIDVEWQSNGQQEPESKYRTTPPQLDEDGSYFLYSKLSVDKSRWQRGDTFICAVMHEALHNHYTQESLSHSPGK
B5: canine IgGB Fc (CH2-CH3) P307A with N-terminal SASA tag (Fc fusion, part only; not given: SASA tag, not shown: another chain or arm of the molecule; small tags and cut ends)
Fc: APEMLGGPSVFIFPPKPKDTLLIARTPEVTCVVVDLDPEDPEVQISWFVDGKQMQTAKTQPREEQFNGTYRVVSVLAIGHQDWLKGKQFTCKVNNKALPSPIERTISKARGQAHQPSVYVLPPSREELSKNTVSLTCLIKDFFPPDIDVEWQSNGQQEPESKYRTTPPQLDEDGSYFLYSKLSVDKSRWQRGDTFICAVMHEALHNHYTQESLSHSPGK
B6: canine IgGB Fc (CH2-CH3) Y436A with N-terminal SASA tag (Fc fusion, part only; not given: SASA tag, not shown: another chain or arm of the molecule; small tags and cut ends)
Fc: APEMLGGPSVFIFPPKPKDTLLIARTPEVTCVVVDLDPEDPEVQISWFVDGKQMQTAKTQPREEQFNGTYRVVSVLPIGHQDWLKGKQFTCKVNNKALPSPIERTISKARGQAHQPSVYVLPPSREELSKNTVSLTCLIKDFFPPDIDVEWQSNGQQEPESKYRTTPPQLDEDGSYFLYSKLSVDKSRWQRGDTFICAVMHEALHNHATQESLSHSPGK
B7: canine IgGB Fc (CH2-CH3) I308A with N-terminal SASA tag (Fc fusion, part only; not given: SASA tag, not shown: another chain or arm of the molecule; small tags and cut ends)
Fc: APEMLGGPSVFIFPPKPKDTLLIARTPEVTCVVVDLDPEDPEVQISWFVDGKQMQTAKTQPREEQFNGTYRVVSVLPAGHQDWLKGKQFTCKVNNKALPSPIERTISKARGQAHQPSVYVLPPSREELSKNTVSLTCLIKDFFPPDIDVEWQSNGQQEPESKYRTTPPQLDEDGSYFLYSKLSVDKSRWQRGDTFICAVMHEALHNHYTQESLSHSPGK
B8: canine IgGB Fc (CH2-CH3) H433A with N-terminal SASA tag (Fc fusion, part only; not given: SASA tag, not shown: another chain or arm of the molecule; small tags and cut ends)
Fc: APEMLGGPSVFIFPPKPKDTLLIARTPEVTCVVVDLDPEDPEVQISWFVDGKQMQTAKTQPREEQFNGTYRVVSVLPIGHQDWLKGKQFTCKVNNKALPSPIERTISKARGQAHQPSVYVLPPSREELSKNTVSLTCLIKDFFPPDIDVEWQSNGQQEPESKYRTTPPQLDEDGSYFLYSKLSVDKSRWQRGDTFICAVMHEALANHYTQESLSHSPGK
B9: canine IgGB Fc (CH2-CH3) T250A with N-terminal SASA tag (Fc fusion, part only; not given: SASA tag, not shown: another chain or arm of the molecule; small tags and cut ends)
Fc: APEMLGGPSVFIFPPKPKDALLIARTPEVTCVVVDLDPEDPEVQISWFVDGKQMQTAKTQPREEQFNGTYRVVSVLPIGHQDWLKGKQFTCKVNNKALPSPIERTISKARGQAHQPSVYVLPPSREELSKNTVSLTCLIKDFFPPDIDVEWQSNGQQEPESKYRTTPPQLDEDGSYFLYSKLSVDKSRWQRGDTFICAVMHEALHNHYTQESLSHSPGK
B10: canine IgGB Fc (CH2-CH3) L252A with N-terminal SASA tag (Fc fusion, part only; not given: SASA tag, not shown: another chain or arm of the molecule; small tags and cut ends)
Fc: APEMLGGPSVFIFPPKPKDTLAIARTPEVTCVVVDLDPEDPEVQISWFVDGKQMQTAKTQPREEQFNGTYRVVSVLPIGHQDWLKGKQFTCKVNNKALPSPIERTISKARGQAHQPSVYVLPPSREELSKNTVSLTCLIKDFFPPDIDVEWQSNGQQEPESKYRTTPPQLDEDGSYFLYSKLSVDKSRWQRGDTFICAVMHEALHNHYTQESLSHSPGK
B11: canine IgGB Fc (CH2-CH3) A254S with N-terminal SASA tag (Fc fusion, part only; not given: SASA tag, not shown: another chain or arm of the molecule; small tags and cut ends)
Fc: APEMLGGPSVFIFPPKPKDTLLISRTPEVTCVVVDLDPEDPEVQISWFVDGKQMQTAKTQPREEQFNGTYRVVSVLPIGHQDWLKGKQFTCKVNNKALPSPIERTISKARGQAHQPSVYVLPPSREELSKNTVSLTCLIKDFFPPDIDVEWQSNGQQEPESKYRTTPPQLDEDGSYFLYSKLSVDKSRWQRGDTFICAVMHEALHNHYTQESLSHSPGK
B12: canine IgGB Fc (CH2-CH3) Q285A with N-terminal SASA tag (Fc fusion, part only; not given: SASA tag, not shown: another chain or arm of the molecule; small tags and cut ends)
Fc: APEMLGGPSVFIFPPKPKDTLLIARTPEVTCVVVDLDPEDPEVQISWFVDGKQMATAKTQPREEQFNGTYRVVSVLPIGHQDWLKGKQFTCKVNNKALPSPIERTISKARGQAHQPSVYVLPPSREELSKNTVSLTCLIKDFFPPDIDVEWQSNGQQEPESKYRTTPPQLDEDGSYFLYSKLSVDKSRWQRGDTFICAVMHEALHNHYTQESLSHSPGK
B13: canine IgGA antibody with wild-type IgGA Fc and the variable domain of Gearing et al. 2013 (antibody, part only; not given: variable domains and light chain, not shown: another chain or arm of the molecule; small tags and cut ends)
Fc: VPEPLGGPSVLIFPPKPKDILRITRTPEVTCVVLDLGREDPEVQISWFVDGKEVHTAKTQSREQQFNGTYRVVSVLPIEHQDWLTGKEFKCRVNHIDLPSPIERTISKARGRAHKPSVYVLPPSPKELSSSDTVSITCLIKDFYPPDIDVEWQSNGQQEPERKHRMTPPQLDEDGSYFLYSKLSVDKSRWQQGDPFTCAVMHETLQNHYTDLSLSHSPGK
B14: canine IgGA antibody, Fc variant A426Y, variable domain of Gearing et al. 2013 (antibody, part only; not given: Variable domains, not shown: another chain or arm of the molecule; small tags and cut ends)
Fc: VPEPLGGPSVLIFPPKPKDILRITRTPEVTCVVLDLGREDPEVQISWFVDGKEVHTAKTQSREQQFNGTYRVVSVLPIEHQDWLTGKEFKCRVNHIDLPSPIERTISKARGRAHKPSVYVLPPSPKELSSSDTVSITCLIKDFYPPDIDVEWQSNGQQEPERKHRMTPPQLDEDGSYFLYSKLSVDKSRWQQGDPFTCYVMHETLQNHYTDLSLSHSPGK
B15: canine IgGA antibody, Fc variant A426H, variable domain of Gearing et al. 2013 (antibody, part only; not given: Variable domains, not shown: another chain or arm of the molecule; small tags and cut ends)
Fc: VPEPLGGPSVLIFPPKPKDILRITRTPEVTCVVLDLGREDPEVQISWFVDGKEVHTAKTQSREQQFNGTYRVVSVLPIEHQDWLTGKEFKCRVNHIDLPSPIERTISKARGRAHKPSVYVLPPSPKELSSSDTVSITCLIKDFYPPDIDVEWQSNGQQEPERKHRMTPPQLDEDGSYFLYSKLSVDKSRWQQGDPFTCHVMHETLQNHYTDLSLSHSPGK

target: canine FcRn (FcRn large subunit with canine beta-2-microglobulin) (canine); test: SPR pH 5.5, SASA-Fc captured on BSA, FcRn 400 nM

Kd | WT KD Avg/Variant KD | kon | koff | Binder
723 nM and 1670 nM | 0.78 and 0.34 | 234000 M⁻¹ s⁻¹ and 318000 M⁻¹ s⁻¹ | – | B1
245 nM and 294 nM | 2.31 and 1.92 | – | – | B2
464 nM and 569 nM | 1.22 and 0.99 | 422000 M⁻¹ s⁻¹ and 533000 M⁻¹ s⁻¹ | 0.196 s⁻¹ and 0.304 s⁻¹ | B3
447 nM and 298 nM | 1.27 and 1.9 | – | 0.166 s⁻¹ | B4
325 nM and 338 nM | 1.74 and 1.67 | – | 1.23 s⁻¹ | B5
393 nM and 876 nM | 1.44 and 0.65 | – | 0.407 s⁻¹ and 0.213 s⁻¹ | B6
472 nM and 563 nM | 1.2 and 1 | 357000 M⁻¹ s⁻¹ and 345000 M⁻¹ s⁻¹ | 0.169 s⁻¹ and 0.194 s⁻¹ | B7
266 nM and 359 nM | 2.13 and 1.58 | – | 0.229 s⁻¹ and 0.0997 s⁻¹ | B8
335 nM and 328 nM | 1.69 and 1.72 | – | – | B9
292 nM and 240 nM | 1.94 and 2.36 | – | – | B10
340 nM and 317 nM | 1.66 and 1.78 | – | – | B11
341 nM and 257 nM | 1.66 and 2.2 | – | 0.112 s⁻¹ | B12

target: canine FcRn (FcRn large subunit with canine beta-2-microglobulin) (canine); test: SPR pH 6.0, IgG coupled to CM5, FcRn 50-800 nM

Kd [nM] | koff [s⁻¹] | kon [M⁻¹ s⁻¹] | Binder
5970 | 0.187 | 31400 | B13
767 | 0.0375 | 48900 | B14
1430 | 0.0591 | 41400 | B15
